Experimental data taken from patent US20220267379A1 (published 2022).
Where two headings read alike, the source gives them in different places. One block for each binder: values may come before it. Positions of bridges follow the written chain, without caps; N, C: chain ends. Non-standard residues stand in square brackets, D forms with d. Primed or numbered codes have the meaning given here. Chains are numbered I, II in the order given. No end group written: not given here. *: point of attachment. Palmitoyl = CCCCCCCCCCCCCCCC(=O)*; PEG2″ = not defined here

Assays:
[1] = target: human serum albumin (HSA) (human, UniProt P02768 25-609); assay: fluorescence polarization; human serum dilution
[2] = target: T1, mouse serum albumin (MSA) (mouse, UniProt P07724 25-608); assay: fluorescence polarization
T1 sequence (P07724 25-608): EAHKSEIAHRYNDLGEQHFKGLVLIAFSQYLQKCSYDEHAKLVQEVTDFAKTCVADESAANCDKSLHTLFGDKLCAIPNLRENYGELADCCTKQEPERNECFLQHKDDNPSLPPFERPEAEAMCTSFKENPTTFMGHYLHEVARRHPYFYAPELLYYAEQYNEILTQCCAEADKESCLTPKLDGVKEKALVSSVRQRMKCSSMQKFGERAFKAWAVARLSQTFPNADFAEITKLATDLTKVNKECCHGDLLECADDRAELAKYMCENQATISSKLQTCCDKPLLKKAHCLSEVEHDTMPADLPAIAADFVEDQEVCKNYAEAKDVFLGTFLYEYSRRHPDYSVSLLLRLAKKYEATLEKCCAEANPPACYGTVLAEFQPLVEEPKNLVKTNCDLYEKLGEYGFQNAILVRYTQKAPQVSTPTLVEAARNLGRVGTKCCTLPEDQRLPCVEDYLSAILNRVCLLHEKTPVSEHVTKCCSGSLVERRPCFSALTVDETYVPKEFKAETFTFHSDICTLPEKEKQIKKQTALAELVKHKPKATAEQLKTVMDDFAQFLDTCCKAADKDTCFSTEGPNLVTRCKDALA

[3] = target: plasmin; assay: enzyme inhibition
[4] = target: thrombin; assay: enzyme inhibition
[5] = target: PK; assay: enzyme inhibition
[6] = target: tPA; assay: enzyme inhibition
[7] = target: uPA; assay: enzyme inhibition
[8] = target: trypsin (human); assay: enzyme inhibition
[9] = target: T2, FXIIa (Factor XIIa) (human, UniProt P00748 373-615)
T2 chain: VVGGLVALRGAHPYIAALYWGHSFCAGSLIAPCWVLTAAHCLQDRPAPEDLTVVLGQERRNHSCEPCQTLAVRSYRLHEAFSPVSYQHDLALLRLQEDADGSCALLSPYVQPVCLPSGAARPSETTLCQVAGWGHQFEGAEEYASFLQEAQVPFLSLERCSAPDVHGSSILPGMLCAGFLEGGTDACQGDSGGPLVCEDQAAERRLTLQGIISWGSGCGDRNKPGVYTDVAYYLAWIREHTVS

[10] = target: human Kallikrein-related peptidase 5 (hKLK5) (human, UniProt Q9Y337 67-293); assay: enzyme inhibition
human Kallikrein-related peptidase 5 (hKLK5), sequence (Q9Y337 67-293): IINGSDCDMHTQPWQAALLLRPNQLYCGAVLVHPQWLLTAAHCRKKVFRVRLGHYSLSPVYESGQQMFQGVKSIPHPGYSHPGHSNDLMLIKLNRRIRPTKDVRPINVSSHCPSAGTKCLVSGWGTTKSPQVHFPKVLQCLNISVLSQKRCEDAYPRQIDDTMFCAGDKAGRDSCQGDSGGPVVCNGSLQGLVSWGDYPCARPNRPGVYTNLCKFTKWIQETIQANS

[11] = target: T1, mouse serum albumin (MSA)

Kd [1]: 0.168 µM
B1: N-terminal albumin tag conjugate of KLK7 inhibitor 096 (peptide)
peptide 1: EYEK(Palmitoyl)EYE[PEG2″]
peptide 2: PCLYLARCS
modifications: bridge II:2-II:8; not fully specified (N-terminus, bridges); also: tag C-terminus joined through PEG2 to inhibitor N-terminus (one linear molecule)

Kd [2]: 7 µM
B2: KLK5 inhibitor 035-tag (C-terminal albumin tag conjugate of 035) (peptide)
peptide 1: GCTRQYPCGKG
peptide 2: EYEK(Palmitoyl)EYE
modifications: bridge I:2-I:8; not fully specified (N-terminus, C-terminus, bridges); also: albumin tag (chain 2) joined via PEG2 to side chain of Lys10 of chain 1, tag end used not given here, N-terminal fluorescein via PEG2, chain not given here

Ki [3]: > 100 µM | Ki [4]: > 100 µM | Ki [5]: > 100 µM | Ki [6]: > 100 µM | Ki [7]: > 100 µM
Binder: GCTRQYPC (linker 2-8 via 1,3‑dibromoacetone) [peptide 035]

Kd [2]: 10.1 µM
B3: SSSKSSS-tag (peptide)
peptide: SSSKSSS
modifications: not fully specified (residue 4, N-terminus); also: fluorescein as in the albumin tag

Kd [1]: 0.118 µM
B4: N-terminal albumin tag conjugate of KLK5 inhibitor 035 (peptide)
peptide 1: EYEK(Palmitoyl)EYE[PEG2″]
peptide 2: GCTRQYPC
modifications: bridge II:2-II:8; not fully specified (N-terminus, bridges); also: tag C-terminus joined through PEG2 to inhibitor N-terminus (one linear molecule)

Ki [8]: 60 µM | Ki [9]: 43 µM | Ki [10]: 0.01 µM
Binder: GCTRQYPC (linker 2-8 via 1,3‑dibromoacetone) [peptide 035 (lead KLK5 inhibitor)]

Kd [11]: 7.9 µM
Binder: EYEK(Palmitoyl)EYE-fluorescein [albumin tag with fluorescein at the C-terminus (tag-F)]
